The target of test [1] is T1, human HER2 His6 protein, extracellular domain (NCBI NP_004439.2, Met 1-Thr 652), C-terminal polyhistidine tag (human, UniProt P04626 23-652).
T1 construct: range 1-652; The stated range includes Met 1; also called HER2-ECD; human HER2-ECD
Kind of test: called SPR, run on ForteBio OCTET R2; antibody captured on Protein A sensor, HER2 protein at 500-31.3 nM as analyte, 25 °C. As for the experimental part:
(§1) […] detection was performed and Protein A sensor was used to solidify the antibody at a curing height of approximately […]. […] Affinity detection: equilibrium for 60 seconds, binding for 180 seconds, dissociation for 180 seconds, detection at 25° C., and kinetic characterization analysis was performed using the ForteBio OCTET R2 system.
(In general: Biolayer interferometry detects binding as a change in optical thickness at a sensor tip.)

Test [2] deals with T1, human HER2 His6 protein, extracellular …. Kind of test: ELISA, HER2 protein coated at 1 µg/mL, detection with HRP-labelled protein A. Here is the method:
(§2) HER2 protein was diluted to 1 μg/mL with coating solution, coated onto ELISA plate, 100 μL/well, 4° C., overnight. The excess antigens were washed off. The plate was blocked with 1% BSA at room temperature for 2 hours, then 5-fold gradient diluted monoclonal antibodies were added at 100 μL/well, and the plate was incubated at room temperature for 1 hour; the unbound antibodies were washed off, and suitable concentration of horseradish peroxidase labeled Staphylococcus protein A was added at 100 μL/well, and the plate was incubated at room temperature for 0.5 hours. The unbound secondary antibody was washed off. TMB colorimetric solution was added and reacted for about 15 minutes. 1M HCl at 50 μL/well was added to terminate the colorimetric reaction, then the absorbance was measured at 450 nm and the data was analyzed.
In general terms: In an ELISA, binding on a coated surface is turned into a signal by an enzyme label.

In test [3] the target is T2, HER2 receptor on the surface of NCI-N87 cells (human, UniProt P04626 23-1255).
T2 construct: whole, on cells; also called HER2 on tumor cell surface
Kind of test: flow cytometry on NCI-N87 cells, PE-labelled secondary antibody. As for the experimental part:
(§3) HER2 overexpressing gastric cancer cell line NCI-N87 was used as the target cell. 100 μL of the test antibody diluted in a 10 folds gradient was used as the primary antibody. It was mixed with 1×10⁵ tumor cells suspended in 100 μL RPMI-1640 serum-free medium at final concentrations of 10 μg/mL, 1 μg/mL, and 0.1 μg/mL. The cells were then incubated at 4° C. for 1 hour, washed twice with PBS to remove unbound primary antibodies, and incubated with 200 μL, 2 μg/mL, PE labeled secondary antibodies at 4° C. for 30 minutes. The cells were washed twice with PBS to remove unbound secondary antibodies. Finally, the cells were resuspended in 200 μL PBS and analyzed by flow cytometry to determine the binding affinity of the test antibody to HER2 on the corresponding cell surface.

The target of test [4] is T1, human HER2 His6 protein, extracellular …. Kind of test: ELISA, HER2 protein coated at 1 µg/mL, detection with HRP-labelled protein A, OD 450 nm. As for the experimental part: as §2
For test [5] the target is unchanged. As to the kind of experiment: ForteBio OCTET R2, antibody captured on Protein A sensor, HER2 protein in solution, 25 °C. As for the experimental part: as §1
Test [6] has as its target T2, HER2 receptor on the surface of NCI-N87 …. As to the kind of experiment: flow cytometry on NCI-N87 cells, PE-labelled secondary antibody. Here is the method: as §3
This is another data set of the same source.

Broadly, the Kd is the equilibrium constant for the complex coming apart. A higher Kd goes with lower affinity. The EC50 is the concentration at which the effect is half-maximal. Read a high EC50 as a need for much substance. By koff is commonly meant the first-order rate constant of dissociation. What is called kon is the second-order rate constant of association. Read a high kon as faster complex formation.

Like-named read-outs stand apart in the source and are kept apart here.

B1: HER2 VHH-FC1 fusion protein 2-C07 (Fc fusion)
chain: AVQLVESGGGLVQPGGSLRLSCAASGLTFMRYDINWYRQAPGKERELVAALDSSSGRTNYADFTEGRFTISRNNAKNSAYLQMNNLKPEDTASYYCNAQWKRIGADYWGQGTQVTVFSEPKSSDKTHTCPPCPAPEFEGGPSVFLFPPKPKDTLMISRTPEVTCVVVDVSHEDPEVKFNWYVDGVEVHNAKTKPREEQYNSTYRVVSVLTVLHQDWLNGKEYKCKVSNKALPASIEKTISKAKGQPREPQVYTLPPSRDELTKNQVSLTCLVKGFYPSDIAVEWESNGQPENNYKTTPPVLDSDGSFFLYSKLTVDKSRWQQGNVFSCSVMHEALHNHYTQKSLSLSPGK
notes: 25; also called 2-C07-FC1; chimeric nanobody 2-C07
As for B1, the dissociation constant (Kd) in test [1] was found to be 7.42 nM. The EC50 in test [2] came to 0.005 µg/mL; in test [3], 1.68 nM; in test [4], 0.07 nM; in test [6] it was 0.131 µg/mL. Also, the “Max MFI” value in test [3] came out at 241000. This molecule showed a koff in test [5] of 0.00251 s⁻¹. This molecule also came in with a kon in test [5] of 338000 M⁻¹ s⁻¹.

B2: HER2 VHH-FC1 fusion protein 2-F03 (Fc fusion)
chain: EVQLVESGGGLVQPGGSLRLSCAASGLTFRRYHMSWYRQAPGKERELVAVISDTGTTNYAESVKGRFTISRDNSRSTVFLQLNSLKPDDTAVYYCNGRWPAVAADWWGQGTQVTVSSEPKSSDKTHTCPPCPAPEFEGGPSVFLFPPKPKDTLMISRTPEVTCVVVDVSHEDPEVKFNWYVDGVEVHNAKTKPREEQYNSTYRVVSVLTVLHQDWLNGKEYKCKVSNKALPASIEKTISKAKGQPREPQVYTLPPSRDELTKNQVSLTCLVKGFYPSDIAVEWESNGQPENNYKTTPPVLDSDGSFFLYSKLTVDKSRWQQGNVFSCSVMHEALHNHYTQKSLSLSPGK
notes: 25; also called 2-F03-FC1; chimeric nanobody 2-F03
B2 registered a Kd in test [1] of 23.2 nM. Also, the EC50 in test [2] turned out to be 0.004 µg/mL; in test [3], 1.67 nM; in test [4], 0.05 nM; in test [6], 0.13 µg/mL. Also, the “Max MFI” value in test [3] worked out at 234000. In addition, in test [5], the koff is 0.0108 s⁻¹. In test [5], this molecule registered a kon of 466000 M⁻¹ s⁻¹.

B3: HER2 VHH-FC1 fusion protein 1-C09 (Fc fusion)
chain: DVQLVESGGGLVQPGGSLRLSCEASGLTFRRYHFSWYRQPPGKERELVAVISDTGSTTNYTDSVKGRFTISRDLARNTVFLQLNSLKPDDTAVYYCNAKWPIIAADWWGQGTQVTVSSEPKSSDKTHTCPPCPAPEFEGGPSVFLFPPKPKDTLMISRTPEVTCVVVDVSHEDPEVKFNWYVDGVEVHNAKTKPREEQYNSTYRVVSVLTVLHQDWLNGKEYKCKVSNKALPASIEKTISKAKGQPREPQVYTLPPSRDELTKNQVSLTCLVKGFYPSDIAVEWESNGQPENNYKTTPPVLDSDGSFFLYSKLTVDKSRWQQGNVFSCSVMHEALHNHYTQKSLSLSPGK
notes: 25; also called 1-C09-FC1; 1-C9-FC1
With B3, in test [1], the Kd turned out to be 12.1 nM. The half-maximal effective concentration (EC50) in test [2] worked out at 0.01 µg/mL; in test [3] it was 1.39 nM; in test [4] it was 0.125 nM; in test [6] it was 0.109 µg/mL. The “Max MFI” value in test [3] turned out to be 269000. The molecule further yielded a koff in test [5] of 0.0118 s⁻¹. In test [5], the kon was 974000 M⁻¹ s⁻¹.

B4: HER2 VHH-FC1 fusion protein 1-C10 (Fc fusion)
chain: QVQLVESGGDLVQPGGSLRLSCATSGLTFRRYELKWYRQAPGKERELVAGITPASGSRNYADSVKGRFTISRDDAKMTVYLQMNSLEPEDTAVYYCNAYWMIPQHIENNYWGKGTLVTVSSEPKSSDKTHTCPPCPAPEFEGGPSVFLFPPKPKDTLMISRTPEVTCVVVDVSHEDPEVKFNWYVDGVEVHNAKTKPREEQYNSTYRVVSVLTVLHQDWLNGKEYKCKVSNKALPASIEKTISKAKGQPREPQVYTLPPSRDELTKNQVSLTCLVKGFYPSDIAVEWESNGQPENNYKTTPPVLDSDGSFFLYSKLTVDKSRWQQGNVFSCSVMHEALHNHYTQKSLSLSPGK
notes: 25; also called 1-C10-FC1; chimeric nanobody 1-C10
Consider B4, for which, in test [1], the affinity, expressed as Kd, was 4.61 nM. Moreover, the concentration giving a half-maximal response (EC50) in test [2] was determined as 0.017 µg/mL; in test [3], 2.64 nM; in test [4], 0.22 nM; in test [6], 0.209 µg/mL. In test [3], the “Max MFI” value was determined as 240000. The same molecule came in with a koff in test [5] of 0.001 s⁻¹. In test [5], this molecule yielded a kon of 217000 M⁻¹ s⁻¹.

B5: HER2 VHH-FC1 fusion protein 1-G07 (Fc fusion)
chain: QVQLVESGGGKAQPGGSLRLSCVASRITFRHYDLSWYRQAPGQERELVATVTNGGVITYADSVKGRFTISRDNAKNTVQLQMNNLKPEDTAVYYCNAVWVYLQRLTQNKKENDYWGPGTQVTVSSEPKSSDKTHTCPPCPAPEFEGGPSVFLFPPKPKDTLMISRTPEVTCVVVDVSHEDPEVKFNWYVDGVEVHNAKTKPREEQYNSTYRVVSVLTVLHQDWLNGKEYKCKVSNKALPASIEKTISKAKGQPREPQVYTLPPSRDELTKNQVSLTCLVKGFYPSDIAVEWESNGQPENNYKTTPPVLDSDGSFFLYSKLTVDKSRWQQGNVFSCSVMHEALHNHYTQKSLSLSPGK
notes: 25; also called 1-G07-FC1; chimeric nanobody 1-G07
As for B5, the EC50 in test [2] worked out at 0.01 µg/mL; in test [3], 2.48 nM; in test [4], 0.128 nM; in test [6] it was 0.199 µg/mL. For the same molecule, in test [3], the “Max MFI” value was found to be 250000.

B6: HER2 VHH-FC1 fusion protein 1-B05 (Fc fusion)
chain: AVQLVESGGGPGGSLRLSCAASGITFFRHTLGWYRQAPGKQRELVASITGGESTNYADSVKSRFTISRDNAKNMVFLQMNSLKPEDTALYYCNSKWDAAGVEFWGKGTLVTVSSEPKSSDKTHTCPPCPAPEFEGGPSVFLFPPKPKDTLMISRTPEVTCVVVDVSHEDPEVKFNWYVDGVEVHNAKTKPREEQYNSTYRVVSVLTVLHQDWLNGKEYKCKVSNKALPASIEKTISKAKGQPREPQVYTLPPSRDELTKNQVSLTCLVKGFYPSDIAVEWESNGQPENNYKTTPPVLDSDGSFFLYSKLTVDKSRWQQGNVFSCSVMHEALHNHYTQKSLSLSPGK
notes: 25; also called 1-B05-FC1; chimeric nanobody 1-B05
Molecule B6 returned a Kd in test [1] of 8.9 nM. Also, the concentration giving a half-maximal response (EC50) was 0.005 µg/mL in test [2], 1.86 nM in test [3], 0.069 nM in test [4] and 0.144 µg/mL in test [6]. Further, in test [3], the “Max MFI” value was 245000. For the same molecule, the koff in test [5] came out at 0.0108 s⁻¹. For the same molecule, in test [5], the kon stood at 1.22e+06 M⁻¹ s⁻¹.
